Data set [1] has as its system MS2 coat protein. The data set is described as follows: apparent KD of MS2 coat protein, switch ON state; designed switch direction (-1 OFF switch, 1 ON switch): -1; higher = weaker reporter binding. To be noted: FMN input: 0 or 200 uM; Eterna round: R93 (includes R88 designs). The essentials: (§1)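 Binding of SNAP-549-labelled MS2 coat protein was measured on designed RNA switches transcribed on-chip from Illumina sequencing clusters. The protein rose in twofold steps from 0.7 or 1.5 nM to 3 µM, with 0.8–1.5 h per step early on and 10–20 min per step later, in 100 mM Tris-HCl pH 7.5, 80 mM KCl, 4 mM MgCl2, without or with constant ligand. Each design's apparent KD is the median of fits to its normalised cluster binding curves.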

The test system of data set [2] is MS2 coat protein. The experiment in a line: apparent KD of MS2 coat protein, switch OFF state (with FMN for OFF switches, without FMN for ON switches); designed switch direction (-1 OFF switch, 1 ON switch): -1; higher = weaker reporter binding. To be noted: FMN input: 0 or 200 uM; Eterna round: R93 (includes R88 designs). The essentials:
as §1

Data set [3] has as its system MS2 coat protein. The experiment in a line: apparent KD of MS2 coat protein; designed switch direction (-1 OFF switch, 1 ON switch): 1; higher = weaker reporter binding. The essentials: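 Three titration conditions were used: no input, 200 uM small-molecule ligand, and an oligonucleotide input. In each, SNAP-549-labelled MS2 coat protein was raised from 0.7 or 1.5 nM, doubling, to 3 µM over designed RNA switches transcribed on Illumina chips by stalled E. coli RNA polymerase. Curve fits of normalised cluster fluorescence gave values whose per-design median over clusters is the apparent KD.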

[4] abbreviates: input ligand: microRNA oligo, concentration not stated.
Setting [5] is: Eterna round: R95, input ligand: FMN 200 uM.
Where [6] appears, read: Eterna round: R95, input ligand: microRNA oligo, concentration not stated.
Setting [7] is: Eterna round: R95, input ligand: none.

Turning to “AAAAAAAGAGGAUAUACGAACAUGUCAAAAGACGUGAAGGGACAUGAGGAUCACCCAUGUAGAAGGUUUAAAAA [JL Wide Open 29]”, the “apparent KD of MS2 coat protein” value amounted to 0.0329 µM in data set [1] and 0.0155 µM in data set [2].

Take “AAAAAACAUGAGGAUCACCCAUGUAAGGAUAUGCAAAAUAAAAGAAAUAAAAAGAAAAGCAGAAGGUAUAUGAA [JL wbt mod 7]”: the figures for the “apparent KD of MS2 coat protein” value in data set [1] and in data set [2] were 0.0326 µM and 0.0267 µM, respectively.

Turning to “AAAAAACAUGAGGAUCACCCAUGUAAGGAUAUGCCAACAAACAAACAAACAAAAAAAAGCAGAAGGUACAAAAA [Amethyst 70]”, the “apparent KD of MS2 coat protein” value in data set [1] is 0.0198 µM; in data set [2], 0.0241 µM.

Turning to “AAAAAACAUGAGGAUCACCCAUGUAAGGAUAUGCUAAAAAACACGGAAAACGUGAAUAGCAGAAGGUACAAAAA [66%, Wbt, 30]”, the “apparent KD of MS2 coat protein” value worked out at 0.0215 µM in data set [1] and 0.0385 µM in data set [2].

As to “AAAAAACAUGAGGAUCACCCAUGUAAGGAUAUGCUGAAAAACACGGAAAAAACGUGCAGCAGAAGGUACAAAAA [66%, Wbt, 33]”, the “apparent KD of MS2 coat protein” value in data set [1] came to 0.0201 µM; in data set [2], 0.0283 µM.

For the sequence “AAAAAACAUGAGGAUCACCCAUGUAAGGAUAUGCUGAAAAACACGGAAAAAACGUGCAGCAGAAGGUACAAAAG [Mat - Exclusion 1 - Eli mod - D90]”, the “apparent KD of MS2 coat protein” value in data set [1] worked out at 0.0161 µM; in data set [2] it was 0.0339 µM.

“AAAAAACAUGAGGAUCACCCAUGUAAGGAUAUGCUGAAAAACACGGAAAAACGUGACAGCAGAAGGUACAAAAA [66%, Wbt, 32]”: the results for the “apparent KD of MS2 coat protein” value in data set [1] and in data set [2] were 0.0216 µM and 0.0304 µM, respectively.

In the case of “AAAAAACAUGAGGAUCACCCAUGUAAGGAUAUGUAAAAUAAAAGAAAAAUAAAGAAAAGCAGAAGGUACAAAAA [JL wbt mod 19]”, the “apparent KD of MS2 coat protein” value in data set [1] was determined as 0.0259 µM; in data set [2], 0.025 µM.

As to “AAAAAACAUGAGGAUCACCCAUGUCAGGAUAUGCAGAAAAAGAAAAAAAGAAAAGAAAGUAGAAGGGACAAAAA [May 7]”, the “apparent KD of MS2 coat protein” value in data set [1] is 0.0312 µM; in data set [2], 0.0318 µM.

As to “UUGAGGAAUUAAGGAUAUUGAGUACAUAUGUUUAACAUGAGGAUCACCCAUGUGGGUUGCGGUAUCGAGAAGGUAAAUUACUAG [JL SSNG2 1.46] (Eterna round: R96, puzzle: Same State NG 2)”, the “apparent KD of MS2 coat protein” value in data set [3] (input ligand: FMN 200 uM) came out at 0.141 µM; in data set [3] (setting [4]), 0.0838 µM; in data set [3] (input ligand: none), 0.168 µM.

As to “UUGCGGGAUUGAGGAUAUUGAGUACAUAUGUUUAACAUGAGGAUCACCCAUGUGGGUUGCGGUAUCGAGAAGGUAACUUACUAC [salish99_SSNG2_r04_805] (Eterna round: R96, puzzle: Same State NG 2)”, the “apparent KD of MS2 coat protein” value in data set [3] (setting [4]) came out at 0.0755 µM.

“UUGCGGGCUUGAGGAUAUUGAGUACAUAUGUUUAACAUGAGGAUCACCCAUGUGGGUUGCGGUAUCGAGAAGGUAACUUCCUAC [salish99_SSNG2_r04_808] (Eterna round: R96, puzzle: Same State NG 2)”: the “apparent KD of MS2 coat protein” value was found to be 0.169 µM in data set [3] (input ligand: FMN 200 uM), 0.0925 µM in data set [3] (setting [4]) and 0.153 µM in data set [3] (input ligand: none).

“UUGCGGGUUUGAGGAUAUUGAGUACAUAUGUUUAACAUGAGGAUCACCCAUGUGGGUUGCGGUAUCGAGAAGGUAACUUACUAC [salish99_SSNG2_r04_806] (Eterna round: R96, puzzle: Same State NG 2)”: the “apparent KD of MS2 coat protein” value in data set [3] (input ligand: FMN 200 uM) stood at 0.179 µM; in data set [3] (setting [4]) it was 0.0689 µM; in data set [3] (input ligand: none), 0.11 µM.

“UUGCUCGGGUGAGGAUAUGCCGCCGUUUCGGCUGCAGAAGGUGCUACGUUACAUGAGGAUCACCCAUGUCUCUGUUGUUUCGUC [salish99_SSNG1_r04_968] (Eterna round: R96, puzzle: Same State NG 1)”: the “apparent KD of MS2 coat protein” value in data set [3] (input ligand: FMN 200 uM) came to 0.0651 µM; in data set [3] (setting [4]), 0.0281 µM; in data set [3] (input ligand: none) it was 0.0523 µM.

Turning to “UUGUUUAGUAAUUAACAUGAGGAUCACCCAUGUCUUGGCUCAGAGGAUAUGCAUGUUUGAUUGUAGCAGAAGGCUGAUUGUUGU [JR_SSNG3_Sub030] (Eterna round: R96, puzzle: Same State NG 3)”, the “apparent KD of MS2 coat protein” value in data set [3] (input ligand: FMN 200 uM) was found to be 0.0651 µM; in data set [3] (setting [4]) it was 0.148 µM; in data set [3] (input ligand: none), 0.107 µM.

Turning to “UUGUUUCACGUAGGAUAUCGACCUACAUGAGGAUCACCCAUGUUUUUGAAUAGAUUUUUUUGUUACGAGAAGGACGUUAUGUAU [JR_SSNG2_Sub065] (Eterna round: R96, puzzle: Same State NG 2)”, the “apparent KD of MS2 coat protein” value in data set [3] (input ligand: FMN 200 uM) was 0.0593 µM; in data set [3] (setting [4]), 0.104 µM; in data set [3] (input ligand: none) it was 0.168 µM.

In the case of “UUUACAUUACGAGGAUAUCAAUUAUUUCAUGUAUGAGAAGGCGUUAUUUUUACUACCUUACAUGAGGAUCACCCAUGUUUCAUU [JR_SSNG1_Sub041] (Eterna round: R96, puzzle: Same State NG 1)”, the “apparent KD of MS2 coat protein” value in data set [3] (setting [4]) is 0.0403 µM.

For the sequence “UUUACAUUACGAGGAUAUCAAUUAUUUCAUGUUUGAGAAGGCGUUUUUUUUAUUACCUUACAUGAGGAUCACCCAUGUUUCAUU [JR_SSNG1_Sub042] (Eterna round: R96, puzzle: Same State NG 1)”, the “apparent KD of MS2 coat protein” value worked out at 0.0194 µM in data set [3] (input ligand: FMN 200 uM), 0.0184 µM in data set [3] (setting [4]) and 0.0255 µM in data set [3] (input ligand: none).

Take “UUUAGAUUCAGAGGAUAUUGAUGUUGUAAGUAACAAGAAGGCUGAUUGGUUAGAAUUGUUUAUUAACAUGAGGAUCACCCAUGU [JR_SSNG1_Sub010] (Eterna round: R96, puzzle: Same State NG 1)”: the “apparent KD of MS2 coat protein” value in data set [3] (input ligand: FMN 200 uM) was found to be 0.0181 µM; in data set [3] (setting [4]) it was 0.0282 µM; in data set [3] (input ligand: none) it was 0.0306 µM.

Regarding “UUUAGGUACGGGCAGGAUAUGUAUUAAAAUACAUGAGGAUCACCCAUGUGCGGGUAUAACACCCGACAGAAGGGCCAAUCGUACC [Laonerce - 10] (puzzle: Same State 2)”, the figures for the “apparent KD of MS2 coat protein” value in data set [3] (setting [5]), in data set [3] (setting [6]) and in data set [3] (setting [7]) were 0.0251 µM, 0.136 µM and 0.251 µM, respectively.

With “UUUAGUUGCGGGCAGGAUAUGUAUUAAAAUACAUGAGGAUCACCCAUGUGAGGCCGAAAAGGCCUACAGAAGGGCCAAACGCGAC [Laonerce - 23] (puzzle: Same State 2)”, the “apparent KD of MS2 coat protein” value in data set [3] (setting [5]) came to 0.0144 µM; in data set [3] (setting [6]), 0.0845 µM; in data set [3] (setting [7]) it was 0.117 µM.

As for “UUUAGUUGCGGGCAGGAUAUGUAUUAAAAUACAUGAGGAUCACCCAUGUGUGGGUAUAACACCCAACAGAAGGGCCAAUCGCGAC [Laonerce - 12] (Eterna round: R96, puzzle: Same State 2)”, the “apparent KD of MS2 coat protein” value in data set [3] (setting [4]) stood at 0.0944 µM.

Take “UUUAGUUGCGGGCAGGAUAUGUAUUAAAAUACAUGAGGAUCACCCAUGUGUGGGUAUAACACCCAACAGAAGGGCCAAUCGCGAC [Laonerce - 12] (puzzle: Same State 2)”: the figures for the “apparent KD of MS2 coat protein” value in data set [3] (setting [5]), in data set [3] (setting [6]) and in data set [3] (setting [7]) were 0.0172 µM, 0.154 µM and 0.165 µM, respectively.

With “UUUAUAUUCAGAGGAUAUUAAAGUAGUAUAAUAUAAGAAGGCUGUUUGUUUUGUAAAUUUAUUCUACAUGAGGAUCACCCAUGU [JR_SSNG1_Sub086] (Eterna round: R96, puzzle: Same State NG 1)”, the “apparent KD of MS2 coat protein” value in data set [3] (setting [4]) was 0.0145 µM.

In the case of “UUUAUAUUCAGAGGAUAUUAAUGUAGUAUAACAUAAGAAGGCUGUUUGUUUUGUAAAGUAAUUCUACAUGAGGAUCACCCAUGU [JR_SSNG1_Sub084] (Eterna round: R96, puzzle: Same State NG 1)”, in data set [3] (setting [4]), the “apparent KD of MS2 coat protein” value amounted to 0.0155 µM.

With “UUUAUAUUCAGAGGAUAUUAAUGUAGUAUAAUAUAAGAAGGCUGUUUGUUUUGUAAAGUUAUUAUACAUGAGGAUCACCCAUGU [JR_SSNG1_Sub083] (Eterna round: R96, puzzle: Same State NG 1)”, the “apparent KD of MS2 coat protein” value in data set [3] (setting [4]) turned out to be 0.0135 µM.

Turning to “UUUGCAUGACGAGGAUAUCAUUUAUUUCUUGAUUGAGAAGGCGUUCUUUUUAUUACCUAACAUGAGGAUCACCCAUGUGACAGU [JR_SSNG1_Sub046] (Eterna round: R96, puzzle: Same State NG 1)”, the results for the “apparent KD of MS2 coat protein” value in data set [3] (input ligand: FMN 200 uM), in data set [3] (setting [4]) and in data set [3] (input ligand: none) were 0.0132 µM, 0.0103 µM and 0.0167 µM, respectively.

As for “UUUGCAUGACGAGGAUAUCAUUUAUUUCUUGAUUGAGAAGGCGUUCUUUUUCCUACCUAACAUGAGGAUCACCCAUGUGACAGU [JR_SSNG1_Sub049] (Eterna round: R96, puzzle: Same State NG 1)”, the “apparent KD of MS2 coat protein” value in data set [3] (input ligand: FMN 200 uM) was found to be 0.0127 µM; in data set [3] (setting [4]), 0.012 µM; in data set [3] (input ligand: none) it was 0.014 µM.

Take “UUUUUUAUCGUAGGAUAUAGGUUGAAUAAUAGACUAGAAGGACGUGACAUGAGGAUCACCCAUGUUUUUUAAGUGUCGAAGUGU [JR_SSNG1_Sub039] (Eterna round: R96, puzzle: Same State NG 1)”: the “apparent KD of MS2 coat protein” value in data set [3] (setting [4]) came to 0.0196 µM.

With “UUUUUUUUACAUGAGGAUCACCCAUGUCGGGCUGUUUGCUUUCAUGUCUUAUUGCAUGCAUGUUUUUCAUGCAUGCU [jnicol vienna2 solution] (puzzle: Sensor for hsa-mir-208a version 2)”, the figures for the “apparent KD of MS2 coat protein” value in data set [3] (setting [5]), in data set [3] (setting [6]) and in data set [3] (setting [7]) were 0.0977 µM, 0.129 µM and 0.145 µM, respectively.

The record behind these values is the supplement of paper PMC9170038.
